Measured values from the supplement of paper PMC10724198.
± gives the standard deviation of the averaged measurements.

Test system: Saccharomyces cerevisiae
Test: protein stability index of tFT-peptide fusion (C-terminal peptide) (PSI (0-1 scale)); higher = more stable (slower turnover)
Details: genetic background: wild type; temperature: 30 C
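Further: PSI is a weighted mean of sequencing reads over stability bins, variants kept only with over 10 reads, mCherry proximal and sfGFP distal, peptide attached via GGGS linker.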

Sequence	protein stability index
PPPPPPPPPDPA	0.666 ± 0.013
PPPPPPPPPLFP	0.703 ± 0.022
PPPPPPPPPSFP	0.65 ± 0.0086
PPPPPPPPRLTF	0.698 ± 0.094
PPPPPPSPHPPL	0.709 ± 0.01
PPPPPPSPPPPP	0.713 ± 0.038
PPPPPPTPDPLA	0.666 ± 0.048
PPPPPRPPPPAP	0.5949 ± 0.0051
PPPPPRPPRLLS	0.651 ± 0.1
PPPPPSPDSNLF	0.733 ± 0.067
PPPPPSPLPPRP	0.624 ± 0.045
PPPPPSPRALLP	0.657 ± 0.028
PPPPPVLPPRPP	0.713 ± 0.075
PPPPRHPAAAPP	0.7668 ± 0.0075
PPPPRSPPLPRL	0.743 ± 0.061
PPPPRSPSLLSP	0.651 ± 0.059
PPPPTPPPHSPP	0.656 ± 0.022
PPPPTPPPRTSP	0.739 ± 0.063
PPPPVFPQPTPA	0.6425 ± 0.0023
PPPPVPSLLLLS	0.579 ± 0.019
PPPRFCSLPDHL	0.636 ± 0.049
PPPRHSPRPPCI	0.746 ± 0.11
PPPRLPPPPHAL	0.795 ± 0.044
PPPRLPPPPPPP	0.679 ± 0.048
PPPRPAPPSSHS	0.641 ± 0.044
PPPRPHPTRLSY	0.576 ± 0.054

Sequence	protein stability index
PPPRPPPLPSPV	0.616 ± 0.0093
PPPRPPPPLSHS	0.632 ± 0.04
PPPRPRSLTCPA	0.73 ± 0.14
PPPRPSPPPSRP	0.684 ± 0.021
PPPRSPRSLPPL	0.676 ± 0.017
PPPSCPLSPPRL	0.668 ± 0.0046
PPPSLPFPPPHP	0.6827 ± 0.0029
PPPSPALPLPPY	0.712 ± 0.019
PPPSPFLPPRAP	0.709 ± 0.051
PPPSPLLLFPPL	0.645 ± 0.11
PPPSPPLPPFSL	0.7056 ± 0.00078
PPPSPPLPPPLL	0.696 ± 0.05
PPPSPPPPPLLP	0.6508 ± 0.0016
PPPSPPPTSNPN	0.742 ± 0.04
PPPSPPPYRLPP	0.7 ± 0.016
PPPSPPSTTPPL	0.672 ± 0.07
PPPSPPTAPAAP	0.713 ± 0.038
PPPSPTPGHPQL	0.718 ± 0.044
PPPTDSQTTWHP	0.705 ± 0.018
PPPTPAPLLVPS	0.598 ± 0.0091
PPPTPPPGTYSL	0.579 ± 0.011
PPPTPPSPPRPH	0.71 ± 0.068
PPPTRPSQAPHL	0.645 ± 0.11
PPPTSPRSPVPI	0.697 ± 0.021
PPPVPPTPFLTR	0.744 ± 0.11
PPPVPTRPSPPP	0.6737 ± 0.0047

Sequence	protein stability index
PPPYDPPRPLPR	0.7209 ± 0.0027
PPRAPPPPVPPL	0.598 ± 0.03
PPRLAPPDPSLL	0.673 ± 0.022
PPRLHPAPPPRT	0.747 ± 0.033
PPRLPLSHPPEP	0.634 ± 0.022
PPRLRSPTPFLL	0.755 ± 0.027
PPRLSPAPPASP	0.605 ± 0.009
PPRPPHPAPSPH	0.638 ± 0.024
PPRPPPPPLRST	0.758 ± 0.078
PPRPPSPLPLPP	0.687 ± 0.016
PPRPSLLPRALF	0.642 ± 0.041
PPRPSPPLSPLP	0.72 ± 0.042
PPRVSLLSPPPP	0.693 ± 0.034
PPRVSLLTPSPR	0.853 ± 0.21
PPSASLAPFLSP	0.722 ± 0.12
PPSLPLLPPHPP	0.562 ± 0.011
PPSLRVVMVVGR	0.611 ± 0.056
PPSMRQRKRSGP	0.746 ± 0.028
PPSPAPLHPSTS	0.661 ± 0.047
PPSPAPPPASPP	0.651 ± 0.035
PPSPCRTHRLYI	0.629 ± 0.022
PPSPLAPPLPPP	0.709 ± 0.036
PPSPLPPAPPSP	0.668 ± 0.029
PPSPPDLPPHPP	0.618 ± 0.027
PPSPPPPPKIPP	0.627 ± 0.055
PPSPPPPPPPTP	0.699 ± 0.043

Sequence	protein stability index
PPSPPPPPSSPP	0.707 ± 0.071
PPSPPPPRPSFP	0.713 ± 0.0096
PPSPPRPPTSFL	0.608 ± 0.057
PPSPPSPPPPLP	0.69 ± 0.012
PPSPPTPPPPLP	0.66 ± 0.0085
PPSPRPPRPLFA	0.664 ± 0.021
PPSPYNPPSTAN	0.722 ± 0.0091
PPSRDRATSPSE	0.656 ± 0.023
PPSRNPPDLDTQ	0.682 ± 0.14
PPSSFHFVVPHP	0.684 ± 0.054
PPSTFDPSTLRP	0.665 ± 0.041
PPSTSPTLTSAR	0.722 ± 0.016
PPSVLPLPPSLP	0.732 ± 0.043
PPSVPPPLPHPV	0.74 ± 0.037
PPTFPPPLPLPP	0.692 ± 0.031
PPTGHAPSRALT	0.676 ± 0.091
PPTPAPLSPPYV	0.712 ± 0.026
PPTSLRFRPPYC	0.682 ± 0.046
PPVAPTPFPPPS	0.684 ± 0.018
PPVFYAPLVTER	0.7 ± 0.035
PPVPPPAPPHPR	0.753 ± 0.14
PPVPPPLPYLPP	0.624 ± 0.031
PPVPRSPPPRRS	0.719 ± 0.12
